According to PMC9482650, “Quantitative fragmentomics allow affinity mapping of interactomes” (Nature Communications, 2022):

Legend:
Assay in all cases: holdup assay
Design in all cases: key: below the threshold = too weak to quantify, mostly under pKd 3.1 to 4
ARHGAP21, Q5T5U3 = biological target: T1, ARHGAP21, Q5T5U3
T1 sequence (Q5T5U3 45-169, limits assumed, looked up): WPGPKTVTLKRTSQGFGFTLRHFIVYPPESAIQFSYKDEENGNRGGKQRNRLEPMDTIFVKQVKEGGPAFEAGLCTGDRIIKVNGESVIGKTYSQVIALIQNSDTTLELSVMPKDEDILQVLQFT

ARHGEF11, O15085 = biological target: T2, ARHGEF11, O15085
T2 sequence (O15085 42-136, limits assumed, looked up): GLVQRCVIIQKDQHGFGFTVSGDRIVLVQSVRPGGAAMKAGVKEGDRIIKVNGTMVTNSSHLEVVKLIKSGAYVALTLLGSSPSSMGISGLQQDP

DFNB31_3, Q9P202 = biological target: T3, DFNB31_3, Q9P202
T3 sequence (Q9P202 811-907, limits assumed, looked up): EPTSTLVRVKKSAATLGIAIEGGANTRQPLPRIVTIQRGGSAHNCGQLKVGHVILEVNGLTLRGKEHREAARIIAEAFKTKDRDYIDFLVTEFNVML

DLG4_2, P78352 = biological target: DLG4_2, P78352
Sequence of DLG4_2, P78352 (P78352 155-259): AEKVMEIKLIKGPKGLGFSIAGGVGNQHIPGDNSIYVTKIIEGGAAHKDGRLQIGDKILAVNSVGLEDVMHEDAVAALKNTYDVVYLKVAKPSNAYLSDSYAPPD

FRMPD1, Q5SYB0 = biological target: T4, FRMPD1, Q5SYB0
T4 sequence (Q5SYB0 52-145, limits assumed, looked up): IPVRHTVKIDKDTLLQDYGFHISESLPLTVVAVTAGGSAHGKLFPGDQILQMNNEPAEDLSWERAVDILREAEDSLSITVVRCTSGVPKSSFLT

GIPC2, Q8TF65 = biological target: GIPC2, Q8TF65
Sequence of GIPC2, Q8TF65 (Q8TF65 112-203): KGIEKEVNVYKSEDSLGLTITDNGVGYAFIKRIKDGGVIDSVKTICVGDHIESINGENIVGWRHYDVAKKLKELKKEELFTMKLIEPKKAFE

GRID2IP_2, A4D2P6 = biological target: GRID2IP_2, A4D2P6
Sequence of GRID2IP_2, A4D2P6 (A4D2P6 272-370): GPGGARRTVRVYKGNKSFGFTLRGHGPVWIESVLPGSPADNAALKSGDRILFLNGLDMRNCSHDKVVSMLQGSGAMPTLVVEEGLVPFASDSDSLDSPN

GRIP1_5, Q9Y3R0 = biological target: T5, GRIP1_5, Q9Y3R0
T5 sequence (Q9Y3R0 568-668, limits assumed, looked up): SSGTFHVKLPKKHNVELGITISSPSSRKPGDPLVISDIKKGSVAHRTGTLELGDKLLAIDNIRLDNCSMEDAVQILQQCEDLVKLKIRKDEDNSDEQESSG

GRIP2_4, Q9C0E4 = biological target: GRIP2_4, Q9C0E4
Sequence of GRIP2_4, Q9C0E4 (Q9C0E4 446-548): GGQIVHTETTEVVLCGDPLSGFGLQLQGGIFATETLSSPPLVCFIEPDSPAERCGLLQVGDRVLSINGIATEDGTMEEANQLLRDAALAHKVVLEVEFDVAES

IL16_3, Q14005 = biological target: IL16_3, Q14005
Sequence of IL16_3, Q14005 (Q14005 1107-1207): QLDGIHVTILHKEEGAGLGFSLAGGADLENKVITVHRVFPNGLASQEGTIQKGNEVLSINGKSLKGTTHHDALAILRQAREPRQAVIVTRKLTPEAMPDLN

Inadl_10, Q8NI35 = biological target: Inadl_10, Q8NI35
Sequence of Inadl_10, Q8NI35 (Q8NI35 1673-1763): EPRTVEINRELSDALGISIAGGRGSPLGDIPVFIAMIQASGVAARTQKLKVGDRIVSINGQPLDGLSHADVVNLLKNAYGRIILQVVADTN

Inadl_8, Q8NI35 = biological target: Inadl_8, Q8NI35
Sequence of Inadl_8, Q8NI35 (Q8NI35 1425-1530): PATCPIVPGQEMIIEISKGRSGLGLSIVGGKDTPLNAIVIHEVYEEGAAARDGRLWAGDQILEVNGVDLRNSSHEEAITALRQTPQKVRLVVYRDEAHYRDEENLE

LIN7B, Q9HAP6 = biological target: T6, LIN7B, Q9HAP6
T6 sequence (Q9HAP6 88-185, limits assumed, looked up): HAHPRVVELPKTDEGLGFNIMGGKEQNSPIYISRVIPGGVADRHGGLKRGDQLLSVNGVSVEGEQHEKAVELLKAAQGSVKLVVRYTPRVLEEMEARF

LIN7C, Q9NUP9 = biological target: T7, LIN7C, Q9NUP9
T7 sequence (Q9NUP9 88-185, limits assumed, looked up): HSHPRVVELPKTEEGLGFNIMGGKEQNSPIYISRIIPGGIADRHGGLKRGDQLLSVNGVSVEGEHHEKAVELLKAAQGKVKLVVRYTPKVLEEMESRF

LNX1_1, Q8TBB1 = biological target: LNX1_1, Q8TBB1
Sequence of LNX1_1, Q8TBB1 (Q8TBB1 261-371): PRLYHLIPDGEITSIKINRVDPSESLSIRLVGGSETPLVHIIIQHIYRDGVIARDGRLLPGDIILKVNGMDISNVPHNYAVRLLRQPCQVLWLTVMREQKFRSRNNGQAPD

MAGI2_4, Q86UL8 = biological target: MAGI2_4, Q86UL8
Sequence of MAGI2_4, Q86UL8 (Q86UL8 772-865): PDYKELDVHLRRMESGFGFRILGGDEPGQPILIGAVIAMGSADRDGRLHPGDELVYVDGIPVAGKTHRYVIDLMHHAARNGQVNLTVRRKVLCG

MPP2, Q14168 = biological target: T8, MPP2, Q14168
T8 sequence (Q14168 180-250, limits assumed, looked up): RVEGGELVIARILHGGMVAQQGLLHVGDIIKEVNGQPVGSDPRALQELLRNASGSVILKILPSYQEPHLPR

NHERF3_3, Q5T2W1 = biological target: T9, NHERF3_3, Q5T2W1
T9 sequence (Q5T2W1 238-333, limits assumed, looked up): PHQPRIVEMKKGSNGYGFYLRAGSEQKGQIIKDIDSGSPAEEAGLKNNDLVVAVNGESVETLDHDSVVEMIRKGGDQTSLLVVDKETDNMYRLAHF

NHERF4_2, Q86UT5 = biological target: NHERF4_2, Q86UT5
Sequence of NHERF4_2, Q86UT5 (Q86UT5 220-308): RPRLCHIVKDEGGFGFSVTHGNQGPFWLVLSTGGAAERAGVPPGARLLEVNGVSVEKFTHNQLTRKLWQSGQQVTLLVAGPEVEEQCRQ

NOS1, P29475 = biological target: NOS1, P29475
Sequence of NOS1, P29475 (P29475 9-101): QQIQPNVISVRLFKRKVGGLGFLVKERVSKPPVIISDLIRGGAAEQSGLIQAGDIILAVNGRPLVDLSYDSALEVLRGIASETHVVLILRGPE

PARD3B_1, Q8TEW8 = biological target: T10, PARD3B_1, Q8TEW8
T10 sequence (Q8TEW8 196-299, limits assumed, looked up): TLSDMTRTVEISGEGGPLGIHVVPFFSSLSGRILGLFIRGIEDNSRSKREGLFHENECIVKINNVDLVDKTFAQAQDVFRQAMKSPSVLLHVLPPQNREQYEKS

PARD3_3, Q8TEW0 = biological target: PARD3_3, Q8TEW0
Sequence of PARD3_3, Q8TEW0 (Q8TEW0 582-685): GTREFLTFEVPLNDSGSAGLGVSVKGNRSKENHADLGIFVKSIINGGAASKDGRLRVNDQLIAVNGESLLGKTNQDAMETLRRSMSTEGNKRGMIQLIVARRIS

PCLO, Q9Y6V0 = biological target: T11, PCLO, Q9Y6V0
T11 sequence (Q9Y6V0 4491-4600, limits assumed, looked up): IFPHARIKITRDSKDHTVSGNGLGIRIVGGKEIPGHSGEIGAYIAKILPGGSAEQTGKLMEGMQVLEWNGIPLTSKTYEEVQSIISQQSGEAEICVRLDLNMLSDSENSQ

PTPN13_1, Q12923 = biological target: T12, PTPN13_1, Q12923
T12 sequence (Q12923 1088-1188, limits assumed, looked up): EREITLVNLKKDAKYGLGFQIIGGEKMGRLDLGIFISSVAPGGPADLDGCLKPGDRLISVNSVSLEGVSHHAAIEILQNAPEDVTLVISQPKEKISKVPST

[1] = plain residues with an end cap or a label only (N-terminal biotin on a linker: ado-ado)
[2] = modified: phospho on S at position -3 from the C-terminal residue

Measured: pKd

PMESGICTIV [TTC24, A2A3L6]
4.67: LNX1_1, Q8TBB1; [1]
4.29: PARD3_3, Q8TEW0; [1]
below the threshold: FRMPD1, Q5SYB0; [1] | GIPC2, Q8TF65; [1] | GRIP1_5, Q9Y3R0; [1] | GRIP2_4, Q9C0E4; [1] | IL16_3, Q14005; [1] | LIN7B, Q9HAP6; [1] | LIN7C, Q9NUP9; [1] | MPP2, Q14168; [1] | NHERF3_3, Q5T2W1; [1] | NHERF4_2, Q86UT5; [1] | PCLO, Q9Y6V0; [1] | PTPN13_1, Q12923; [1]
3.98: NOS1, P29475; [1]
4.19: Inadl_8, Q8NI35; [1]
3.89: DFNB31_3, Q9P202; [1]
4.95: DLG4_2, P78352; [1]
4.85: ARHGEF11, O15085; [1]
4.26: PARD3B_1, Q8TEW8; [1]
3.96: ARHGAP21, Q5T5U3; [1]
4.53: MAGI2_4, Q86UL8; [1]
3.75: Inadl_10, Q8NI35; [1]
4.17: GRID2IP_2, A4D2P6; [1]

RALRASESGI [ADGRE5, P48960]
below the threshold: ARHGEF11, O15085; [1] | DLG4_2, P78352; [1] | FRMPD1, Q5SYB0; [1] | GIPC2, Q8TF65; [1] | GRID2IP_2, A4D2P6; [1] | GRIP1_5, Q9Y3R0; [1] | GRIP2_4, Q9C0E4; [1] | IL16_3, Q14005; [1] | Inadl_10, Q8NI35; [1] | Inadl_8, Q8NI35; [1] | LNX1_1, Q8TBB1; [1] | MAGI2_4, Q86UL8; [1] | MPP2, Q14168; [1] | NHERF3_3, Q5T2W1; [1] | NHERF4_2, Q86UT5; [1] | NOS1, P29475; [1] | PARD3B_1, Q8TEW8; [1] | PARD3_3, Q8TEW0; [1] | PCLO, Q9Y6V0; [1] | PTPN13_1, Q12923; [1]
3.62: LIN7B, Q9HAP6; [1]
4.07: LIN7C, Q9NUP9; [1]
3.72: DFNB31_3, Q9P202; [1]
4.03: ARHGAP21, Q5T5U3; [1]

RRVRKLPSTTL [RPS6KA1_-3P, Q15418]
4.62: PARD3B_1, Q8TEW8; [2]
below the threshold: ARHGAP21, Q5T5U3; [2] | ARHGEF11, O15085; [2] | DFNB31_3, Q9P202; [2] | DLG4_2, P78352; [2] | FRMPD1, Q5SYB0; [2] | GIPC2, Q8TF65; [2] | GRID2IP_2, A4D2P6; [2] | GRIP1_5, Q9Y3R0; [2] | GRIP2_4, Q9C0E4; [2] | IL16_3, Q14005; [2] | Inadl_10, Q8NI35; [2] | Inadl_8, Q8NI35; [2] | LIN7B, Q9HAP6; [2] | LIN7C, Q9NUP9; [2] | LNX1_1, Q8TBB1; [2] | MAGI2_4, Q86UL8; [2] | MPP2, Q14168; [2] | NHERF3_3, Q5T2W1; [2] | NHERF4_2, Q86UT5; [2] | NOS1, P29475; [2] | PCLO, Q9Y6V0; [2] | PTPN13_1, Q12923; [2]
3.76: PARD3_3, Q8TEW0; [2]

TMQMSLKDLL [GLA, P06280]
3.69: GRID2IP_2, A4D2P6; [1]
3.53: MAGI2_4, Q86UL8; [1]
3.62: GIPC2, Q8TF65; [1]
3.5: IL16_3, Q14005; [1]
3.99: ARHGEF11, O15085; [1]
3.65: LIN7B, Q9HAP6; [1]
3.51: GRIP1_5, Q9Y3R0; [1]
3.64: DLG4_2, P78352; [1] | LNX1_1, Q8TBB1; [1]
3.54: ARHGAP21, Q5T5U3; [1] | PARD3_3, Q8TEW0; [1]
below the threshold: FRMPD1, Q5SYB0; [1] | GRIP2_4, Q9C0E4; [1] | Inadl_10, Q8NI35; [1] | Inadl_8, Q8NI35; [1] | LIN7C, Q9NUP9; [1] | MPP2, Q14168; [1] | NHERF3_3, Q5T2W1; [1] | NHERF4_2, Q86UT5; [1] | PCLO, Q9Y6V0; [1] | PTPN13_1, Q12923; [1]
4.07: DFNB31_3, Q9P202; [1]
3.73: NOS1, P29475; [1]
3.93: PARD3B_1, Q8TEW8; [1]

LETREPTNTL [GRIP1, Q9Y3R0]
3.96: DFNB31_3, Q9P202; [1]
4.04: ARHGAP21, Q5T5U3; [1]
below the threshold: ARHGEF11, O15085; [1] | DLG4_2, P78352; [1] | FRMPD1, Q5SYB0; [1] | GIPC2, Q8TF65; [1] | GRID2IP_2, A4D2P6; [1] | GRIP1_5, Q9Y3R0; [1] | GRIP2_4, Q9C0E4; [1] | IL16_3, Q14005; [1] | Inadl_10, Q8NI35; [1] | Inadl_8, Q8NI35; [1] | LIN7B, Q9HAP6; [1] | LNX1_1, Q8TBB1; [1] | MAGI2_4, Q86UL8; [1] | MPP2, Q14168; [1] | NHERF3_3, Q5T2W1; [1] | NHERF4_2, Q86UT5; [1] | NOS1, P29475; [1] | PARD3_3, Q8TEW0; [1] | PCLO, Q9Y6V0; [1] | PTPN13_1, Q12923; [1]
3.84: PARD3B_1, Q8TEW8; [1]
4.07: LIN7C, Q9NUP9; [1]

GCQGETEDVL [PTH2R, P49190]
below the threshold: ARHGEF11, O15085; [1] | DFNB31_3, Q9P202; [1] | DLG4_2, P78352; [1] | FRMPD1, Q5SYB0; [1] | GIPC2, Q8TF65; [1] | GRID2IP_2, A4D2P6; [1] | GRIP1_5, Q9Y3R0; [1] | GRIP2_4, Q9C0E4; [1] | IL16_3, Q14005; [1] | Inadl_10, Q8NI35; [1] | Inadl_8, Q8NI35; [1] | LIN7B, Q9HAP6; [1] | LIN7C, Q9NUP9; [1] | LNX1_1, Q8TBB1; [1] | MAGI2_4, Q86UL8; [1] | MPP2, Q14168; [1] | NHERF3_3, Q5T2W1; [1] | NHERF4_2, Q86UT5; [1] | PCLO, Q9Y6V0; [1] | PTPN13_1, Q12923; [1]
4.18: ARHGAP21, Q5T5U3; [1]
4.32: PARD3_3, Q8TEW0; [1]
3.67: NOS1, P29475; [1]
4.05: PARD3B_1, Q8TEW8; [1]
